Assay results: the supplement of paper PMC9170038

Legend:
MS2 coat protein [1] = assay: apparent KD of MS2 coat protein, switch OFF state (with FMN for OFF switches, without FMN for ON switches); designed switch direction (-1 OFF switch, 1 ON switch): -1; higher = weaker reporter binding; details: FMN input: 0 or 200 uM; Eterna round: R93 (includes R88 designs)
Outline: (§1)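 Designed RNA switches were transcribed on-chip from Illumina sequencing clusters and titrated with SNAP-549-labelled MS2 coat protein in twofold steps from 0.7 or 1.5 nM up to 3 µM. Each step lasted 0.8–1.5 h at first and 10–20 min by the end, in 100 mM Tris-HCl pH 7.5, 80 mM KCl and 4 mM MgCl2, without or with constant ligand. Apparent KD is the median, for each design, of fits to normalised cluster binding curves.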

MS2 coat protein [2] = assay: apparent KD of MS2 coat protein, switch ON state; designed switch direction (-1 OFF switch, 1 ON switch): -1; higher = weaker reporter binding; details: FMN input: 0 or 200 uM; Eterna round: R93 (includes R88 designs)
Outline: as §1

MS2 coat protein [3] = assay: apparent KD of MS2 coat protein; designed switch direction (-1 OFF switch, 1 ON switch): 1; higher = weaker reporter binding
Outline: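 An oligonucleotide input, 200 uM small-molecule ligand, or no input was present during titration of SNAP-549-labelled MS2 coat protein, which was doubled from 0.7 or 1.5 nM to 3 µM. Designed RNA switches had been transcribed on Illumina chips by stalled E. coli RNA polymerase. Apparent KD per design is the median over clusters of curves fitted to normalised cluster fluorescence.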

[4] = Eterna round: R95, input ligand: FMN 200 uM
[5] = Eterna round: R95, input ligand: microRNA oligo, concentration not stated
[6] = Eterna round: R95, input ligand: none
[7] = input ligand: microRNA oligo, concentration not stated

Sequence | apparent KD of MS2 coat protein (MS2 coat protein [1]) [nM] | apparent KD of MS2 coat protein (MS2 coat protein [2]) [nM] | also measured
AAGAAUCGAGGAUAUACAAAAUAAAAGAAAAGAAAGAAAGAACAUGAGGAUCACCCAUGUAGAAGGCGAAAGAA [Khaneferre Sobekhotep IV] | 21.9 | 30.3 | 
AGAACGUGAGGAUAUACUAACAAACCUCAACAAACAAACAGACAUGAGGAUCACCCAUGUAGAAGGCACAAAAA [EXC - 2] | 27.2 | 54.2 | 
AAAAAGUGAGGAUAUUCGGAUAGGAAAACGAAAACCUAUCCGAAGAAGGCACAUGAGGAUCACCCAUGUAAAAA [67% Ecls-II - Early G segment 1] | 37.6 | 37 | 
AAAAAACAUGAGGAUCACCCAUGUGAGGAUAUGCAAAAGAAAAGAAAAGAAAGAAGAAGCAGAAGGCACAAGAA [Djedefra] | 36.8 | 29.4 | 
AGCUAGUCAGGAUAUACGAACAUGUCAAAAGACGUGAAUAAACAUGAGGAUCACCCAUGUAGAAGGGACUAGCA [Mat - Exclusion 2 - JL-Eli mod - D53] | 14.8 | 18.3 | 
AGUUGGCGAGGAUAUACAUGAGGAUCACCCAUGUAAAAUAAAUAAAAAAAGGGAGAAAGUAGAAGGCGCUGACA [73%, Moding Norbert Elias, 12] | 193 | 56.2 | 
AACAGUACAGGAUAUACAUGAGGAUCACCCAUGUAAAAAUAAAAGGGAAACUCAAAAAGUAGAAGGGUACUGGA [Moding Maslow revisited (73) 13] | 78.6 | 117 | 
AAUUAGUGAGGAUAUACAUGAGGAUCACCCAUGUGUAAAAAAAAACGCAAAAAAGAAUGUAGAAGGCACUAAAA [Ex 3 Cold] | 37.9 | 20.3 | 
AAAAAGGCAGGAUAUACGAAACUAAGACAAAUAAGAAAGGGACAUGAGGAUCACCCAUGUAGAAGGGCCAAAAA [Exclusion 2-01... 60% 4] | 70.1 | 49.1 | 
AGCUAGUCAGGAUAUACGAAAACGAACGAAGCUGAGAAGGGACAUGAGGAUCACCCAUGUAGAAGGGACUAGCA [Diamond 33] | 107 | 36.4 | 
AAAAUAAAAGGAUAUAAAAAUAAAAGUCAGGAUAUAGGAAACUAGAAGGGACAUGAGGAUCACCCAUGUAAAAU [Meechl Ex4 R2 m1] | 33.8 | 47.8 | 
CUCAAGUGAGGAUAUUCAAGAAAAGAAAAGAAAGAAAAGAAGAAGAAGGCACAUGAGGAUCACCCAUGUAAGAA [EteRNA is fun!] | 57.5 | 34.9 | 
AAAGGACAUGAGGAUCACCCAUGUGAGGAUAUCGGAAAAGGAAAAAAAAAAAAGAAGACGAGAAGGCACACCAA | 55.6 | 38.8 | 
AGAAAGUCAGGAUAUACGAACAAGAAAAAAGACGAGAACGGACAUGAGGAUCACCCAUGUAGAAGGGACAAGAA [Diamond 13] | 36.3 | 73.5 | 
AGUUGGCGAGGAUAUACAUGAGGAUCACCCAUGUAAAAUAAAUAAAAAAUAAAGGGAAGUAGAAGGCGCUGACA [73%, Moding Norbert Elias, 15] | 77 | 41.8 | 
AACUAACAUGAGGAUCACCCAUGUCAGGAUAUGCAAAGAACGAUCGAACGAACGAUAAGCAGAAGGGACAAAAA [Amethyst 96] | 42.1 | 29.8 | 
AAGUUAUUAGGAUAUACUUGUGCGAUUAAUACGUUGAUAUUACAUGAGGAUCACCCAUGUAGAAGGAAUAAAAA [JR_Exc002_Sub412] | 19.4 | 24.4 | 
AGAAUACAUGAGGAUCACCCAUGUAAGGAUAUGUGAAGAAAAAGAAAAGAAAAGAAACACAGAAGGUACAAAAG [EX 1 May 18] | 65.8 | 30 | 
AAAAAGGGAGGAUAUACAUGAGGAUCACCCAUGUGAAGGACGAAAAAGAGUCUAAAGGGUAGAAGGCCCAAAAA [65%, Moding Exclusion3-cac2, 11] | 43.4 | 52.5 | 
AAAAAUGGAGGAUAUACAUGAGGAUCACCCAUGUGUAAAAAAAAUUACACAAAAGAAAGUAGAAGGCCAUAAAA [Ex 3 Warm] | 102 | 59.7 | 

Sequence | apparent KD of MS2 coat protein (MS2 coat protein [1]) [nM] | apparent KD of MS2 coat protein (MS2 coat protein [2]) [nM] | also measured
UUAGAACAUGAGGAUCACCCAUGUGAGGAUAUGCAAUACUAAAAUUAAGAUAAUUAUAGCAGAAGGCACGUAGU [JR_EXc001_Sub804] | 40.9 | 33.2 | 
ACAAACCAAGGAUAUACAUGAGGAUCACCCAUGUGUUCGGCGUUUAGCAUGGGCAGCAGUAGAAGGUGGAGAAA [Dilareat] | 93.1 | 37.4 | 
GGUUGGCGAGGAUAUACAUGAGGAUCACCCAUGUGAGAGAAAAAAGUGAGGAGGAGGAGUAGAAGGCGCUGACG [salish99-ex3-18] | 97 | 28.4 | 
AAACUACUAGGAUAUACAACGGUGUCCUAACUACUAAGAAAACAUGAGGAUCACCCAUGUAGAAGGAGUAAUAA [Cearused] | 78.2 | 35.8 | 
AAAGGAUCAGGAUAUGCGUGGAAAAAGUGUAUUCAAAAAAAACAUGAGGAUCACCCAUGUAGAAGGGAUCCAAA [Normal (20/19)] | 546 | 140 | 
AACUGACAUGAGGAUCACCCAUGUCAGGAUAUGACUUGAAAAAUAAAAUAAAAACAUGUCAGAAGGGACAUGGG [Design 54 :P Sub-opt H] | 18.9 | 20.2 | 
AAGGGACAUGAGGAUCACCCAUGUCAGGAUAUGCUAUGGAAAUAAAAAAUAAAACAUAGCAGAAGGGACAAAAA [Mat - Exclusion 1 - Eli mod - D33] | 67.6 | 41.2 | 
AAAACACAUGAGGAUCACCCAUGUGAGGAUAUGCGAAAAAAAAAAAAAAAAAAAAAACGCAGAAGGCACAUAAA [jn_teaneck] | 43.5 | 23.6 | 
CAGUACUGAGGAUAUACAUGAGGAUCACCCAUGUAAAAAACCUACGAAAGUAGGAAAUGUAGAAGGCAGUACUG [Ex3: 803] | 22.2 | 16.4 | 
AGCUAGUCAGGAUAUACGAACAUGUCAAAAGACGUGAAGGGACAUGAGGAUCACCCAUGUAGAAGGGACUAGCA [WEB mod] | 138 | 35.4 | 
AGCAAGAGAGGAUAUACAUAGGAAAAAAAAGUUAGAUCCCUACAUGAGGAUCACCCAUGUAGAAGGCUCUGGCA [Ex2 Design 153: Sub-opt 17] | 37.1 | 42.2 | 
AACUGCGCAGGAUAUACAUGAGGAUCACCCAUGUAAAGAAAAGAAAGAUCCGAAGAAAGUAGAAGGGCGUGGAA [Variant 2 of Mod 1 of Ex3 sub 3, by Tesla's Dusciple Round 1] | 56.3 | 43.2 | 
AAAAUACAUGAGGAUCACCCAUGUGAGGAUAUGAGAAAGGGAAUAAAAUAACCCAAACUCAGAAGGCACAAAAA [Ex 1 May 26] | 45.9 | 35.9 | 
AGAACGUCAGGAUAUCCAACAACAAGUAAAUAGAGAAGAAGGGAGAAGGGACAUGAGGAUCACCCAUGUAAGAA [e4-2] | 29.9 |  | 
UAGAGAGGAAGCGAGGAUAUCGUGGGAGGGACAUGAGGAUCACCCAUGUAGGAUGUUGAGAGGAACGAGAAGGCGCAGGAAAGAA [JR_SS2_Sub075] (puzzle: Same State 2) |  |  | apparent KD of MS2 coat protein (MS2 coat protein [3]; [4]): 67.1 nM; apparent KD of MS2 coat protein (MS2 coat protein [3]; [5]): 78.1 nM; apparent KD of MS2 coat protein (MS2 coat protein [3]; [6]): 110 nM
AACGGCAGAUGAGGAUAUACUUGCCAUGCGAGCACGCUCGCUACAUGAGGAUCACCCAUGUAUGGGUAGAAGGCAUCAUGAUAC [Eternabot solution 39] (Eterna round: R96, puzzle: Same State NG 2) |  |  | apparent KD of MS2 coat protein (MS2 coat protein [3]; input ligand: FMN 200 uM): 89.6 nM; apparent KD of MS2 coat protein (MS2 coat protein [3]; [7]): 102 nM; apparent KD of MS2 coat protein (MS2 coat protein [3]; input ligand: none): 243 nM
GGAAUAUUUACAGGAUAUGAGUUGUAAAGUCGAUCAGAAGGGUAGGUGUUUUGCACGGUGUGUUACAUGAGGAUCACCCAUGUU [SameState NG1 #22] (Eterna round: R96, puzzle: Same State NG 1) |  |  | apparent KD of MS2 coat protein (MS2 coat protein [3]; input ligand: FMN 200 uM): 74.1 nM; apparent KD of MS2 coat protein (MS2 coat protein [3]; [7]): 66.2 nM; apparent KD of MS2 coat protein (MS2 coat protein [3]; input ligand: none): 123 nM
UGGUACAUGGGAGGAUAUCAUGUAGAAACAUGAGGAUCACCCAUGUGGAUGGAGACAUCGGAGAUUGAGAAGGCCCAUGUACCU [JL SSNG1 3.56] (Eterna round: R96, puzzle: Same State NG 2) |  |  | apparent KD of MS2 coat protein (MS2 coat protein [3]; input ligand: FMN 200 uM): 15.6 nM; apparent KD of MS2 coat protein (MS2 coat protein [3]; [7]): 20.9 nM; apparent KD of MS2 coat protein (MS2 coat protein [3]; input ligand: none): 25.2 nM
CGAUGAUACUUAGGAAAGAGAGUAGAGGAACAUGAGGAUCACCCAUGUAUGAGCUUUUUGCUCGUCAUGAACAGGAA [JR_SHM208a_Sub008] (puzzle: Sensor for hsa-mir-208a) |  |  | apparent KD of MS2 coat protein (MS2 coat protein [3]; [4]): 88.6 nM; apparent KD of MS2 coat protein (MS2 coat protein [3]; [5]): 62.4 nM; apparent KD of MS2 coat protein (MS2 coat protein [3]; [6]): 168 nM
AGCUGUGGAAAACUAUAGCAAAAGUAUGUACAUGAGGAUCACCCAUGUCAUGUACAAGCUUUUUGCUCGUCUUAAAA [ak 5 mod of one Eli's designs.] (puzzle: Sensor for hsa-mir-208a) |  |  | apparent KD of MS2 coat protein (MS2 coat protein [3]; [4]): 42.4 nM; apparent KD of MS2 coat protein (MS2 coat protein [3]; [5]): 18.7 nM; apparent KD of MS2 coat protein (MS2 coat protein [3]; [6]): 90.4 nM
